Experimental data taken from patent US20180185459A1 (PORTOLA PHARMACEUTICALS, published 2018).

T1: cofactor factor Va of the prothrombinase complex (endogenous, in human plasma), P12259
T1 chain 1: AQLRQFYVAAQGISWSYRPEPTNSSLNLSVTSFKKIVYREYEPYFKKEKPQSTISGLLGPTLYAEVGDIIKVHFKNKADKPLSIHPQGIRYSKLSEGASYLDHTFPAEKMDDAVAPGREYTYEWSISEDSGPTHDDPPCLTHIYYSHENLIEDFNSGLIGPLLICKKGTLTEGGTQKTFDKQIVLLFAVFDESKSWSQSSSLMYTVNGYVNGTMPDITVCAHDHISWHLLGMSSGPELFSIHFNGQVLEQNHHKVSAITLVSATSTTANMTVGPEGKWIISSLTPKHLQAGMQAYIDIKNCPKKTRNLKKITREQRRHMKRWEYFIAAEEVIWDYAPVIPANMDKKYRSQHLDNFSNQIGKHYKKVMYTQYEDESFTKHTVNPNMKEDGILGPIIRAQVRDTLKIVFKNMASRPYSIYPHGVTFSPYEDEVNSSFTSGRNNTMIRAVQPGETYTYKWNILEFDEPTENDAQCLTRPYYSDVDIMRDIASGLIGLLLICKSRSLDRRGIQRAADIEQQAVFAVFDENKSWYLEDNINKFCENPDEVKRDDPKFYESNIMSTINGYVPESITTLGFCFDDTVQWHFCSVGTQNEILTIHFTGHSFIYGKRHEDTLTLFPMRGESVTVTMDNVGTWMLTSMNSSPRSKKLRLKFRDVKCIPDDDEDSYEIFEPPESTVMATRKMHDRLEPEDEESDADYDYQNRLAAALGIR
T1 chain 2: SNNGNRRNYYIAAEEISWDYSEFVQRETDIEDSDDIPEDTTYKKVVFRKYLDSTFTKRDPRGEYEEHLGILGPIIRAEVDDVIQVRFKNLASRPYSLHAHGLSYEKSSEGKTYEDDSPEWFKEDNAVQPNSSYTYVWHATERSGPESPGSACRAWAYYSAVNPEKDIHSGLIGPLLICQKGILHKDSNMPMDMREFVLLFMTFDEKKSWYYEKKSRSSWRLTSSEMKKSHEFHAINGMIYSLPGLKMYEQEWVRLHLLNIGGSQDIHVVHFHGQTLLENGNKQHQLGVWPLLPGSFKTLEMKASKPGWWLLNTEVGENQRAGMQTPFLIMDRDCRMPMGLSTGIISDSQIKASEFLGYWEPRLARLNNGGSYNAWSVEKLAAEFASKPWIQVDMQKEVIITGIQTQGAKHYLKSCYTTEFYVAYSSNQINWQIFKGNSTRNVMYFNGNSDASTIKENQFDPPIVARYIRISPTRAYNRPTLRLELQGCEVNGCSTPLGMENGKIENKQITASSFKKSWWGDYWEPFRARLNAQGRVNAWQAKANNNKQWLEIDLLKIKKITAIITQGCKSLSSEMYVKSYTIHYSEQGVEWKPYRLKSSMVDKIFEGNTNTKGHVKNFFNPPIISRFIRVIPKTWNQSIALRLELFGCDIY


How the values were obtained:
[1] = target: T1, cofactor factor Va of the …
[2] = target: ATIII-fondaparinux complex (human antithrombin III with fondaparinux bound) (human, UniProt P01008 33-464, non-covalently bound fondaparinux (synthetic pentasaccharide)); test: cell-based or functional assay
Sequence of ATIII-fondaparinux complex (human antithrombin III with fondaparinux bound) (P01008 33-464 limits assumed, one chain of several): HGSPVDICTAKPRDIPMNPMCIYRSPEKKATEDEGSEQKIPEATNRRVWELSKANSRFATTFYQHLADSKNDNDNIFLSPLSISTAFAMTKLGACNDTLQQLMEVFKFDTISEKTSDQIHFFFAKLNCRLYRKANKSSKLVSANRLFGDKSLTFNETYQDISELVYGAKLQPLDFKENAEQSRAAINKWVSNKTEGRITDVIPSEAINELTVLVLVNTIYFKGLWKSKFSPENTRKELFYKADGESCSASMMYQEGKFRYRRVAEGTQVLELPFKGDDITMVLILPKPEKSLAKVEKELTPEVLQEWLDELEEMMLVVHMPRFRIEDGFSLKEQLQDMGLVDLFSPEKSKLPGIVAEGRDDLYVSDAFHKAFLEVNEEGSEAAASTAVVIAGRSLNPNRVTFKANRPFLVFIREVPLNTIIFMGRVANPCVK

Row | Binder | IIa formation (RFU) in tissue factor-initiated thrombin generation in human plasma against EGR-Xa concentration [1] | IC50 (read off the curve): r-Antidote concentration that halves kiapp of fXa inhibition by the ATIII-fondaparinux complex [2]
1 | EGR-Xa, active site inhibited full length human fXa (human plasma derived) (protein) chain 1: ANSFLEEMKKGHLERECMEETCSYEEAREVFEDSDKTNEFWNKYKDGDQCETSPCQNQGKCKDGLGEYTCTCLEGFEGKNCELFTRKLCSLDNGDCDQFCHEEQNSVVCSCARGYTLADNGKACIPTGPYPCGKQTLER chain 2: IVGGQECKDGECPWQALLINEENEGFCGGTILSEFYILTAAHCLYQAKRFKVRVGDRNTEQEEGGEAVHEVEVVIKHNRFTKETYDFDIAVLRLKTPITFRMNVAPACLPERDWAESTLMTQKTGIVSGFGRTHEKGRQSTRLKMLEVPYVDRNSCKLSSSFIITQNMFCAGYDTKQEDACQGDSGGPHVTRFKDTYFVTGIVSWGEGCARKGKYGIYTKVTAFLKWIDRSMKTRGLPKAKSHAPEVITSSPLK | circles: falls steeply from about 380,000 RFU at 0 nM to about 180,000 and about 85,000 RFU at the next points, below 50,000 RFU by about 100 nM and about 10,000 RFU at about 500 nM | –
2 | r-Antidote (processed two-chain polypeptide, human factor Xa triple mutant after removal of the -RKRRKR- linker) (other) chain 1: ANSFLFWNKYKDGDQCETSPCQNQGKCKDGLGEYTCTCLEGFEGKNCELFTRKLCSLDNGDCDQFCHEEQNSVVCSCARGYTLADNGKACIPTGPYPCGKQTLER chain 2: IVGGQECKDGECPWQALLINEENEGFCGGTILSEFYILTAAHCLYQAKRFKVRVGDRNTEQEEGGEAVHEVEVVIKHNRFTKETYDFDIAVLRLKTPITFRMNVAPACLPERDWAESTLMTQKTGIVSGFGRTHEKGRQSTRLKMLEVPYVDRNSCKLSSSFIITQNMFCAGYDTKQEDACQGDAGGPHVTRFKDTYFVTGIVSWGEGCARKGKYGIYTKVTAFLKWIDRSMKTRGLPKAKSHAPEVITSSPLK | – | ~100 nM
